Assay results as given in PMC4126800 (Nature, 2014).

Target: the molecule itself
Assay: SAXS

B1: Human CD81 large extracellular loop (CD81 LEL, residues 112-202) (domain or fragment)
chain: GFVNKDQIAKDVKQFYDQALQQAVVDDDANNAKAVVKTFHETLDCCGSSTLTALTTSVLKNNLCPSGSNIISNLFKEDCHQKIDDLFSGKL
With B1 the “stoichiometry N” value was 2.
